Experimental data reported in publication PMC3605359, “Expression, purification and biochemical characterization of Schizosaccharomyces pombe Mcm4, 6 and 7” (BMC Biochemistry, 2013).

What was measured:
[1] = biological target: the molecule itself; assay: SEC; 4C1 at much lower protein concentration: a center fraction of the 12-mer peak injected again on the same column (hexamer peak, ~250 kDa)
[2] = biological target: the molecule itself; assay: SEC; 4C1 at the higher protein concentration (12-mer peak, ~500 kDa); 250 mM NaCl, 50 mM Tris pH8, 1 mM DTT

B1: 4C1, core fragment of S. pombe Mcm4 (domain or fragment)
chain: ISDEEVEKIQQVSKRDDIYDILSRSLAPSIYEMDDVKKGLLLQLFGGTNKSFHKGASPRYRGDINILMCGDPSTSKSQILKYVHKIAPRGVYTSGKGSSAVGLTAYITRDQDTKQLVLESGALVLSDGGICCIDEFDKMSDATRSILHEVMEQQTVTVAKAGIITTLNARTSILASANPIGSKYNPDLPVTKNIDLPPTLLSRFDLVYLILDRVDETLDRKLANHIVSMYMEDTPEHATDMEVFSVEFLTSYITYARNNINPVISEEAAKELVNAYVGMRKLGEDVRASEKRITATTRQLESMIRLSEAHAKMHLRNVVEVGDVLEAARLIKTAIKDYATD
[1]
  stoichiometry N: 6
[2]
  stoichiometry N: 12
